Here are results for three substances from article PMC5398546.

Experiment [1] addresses wild-type human serotonin 5HT1B receptor (residues 34-390) with C-terminal His10 (human) (UniProt P28222). Put plainly: fluorescent saturation binding assay (FSBA); DDM-solubilised donitriptan-bound His-tagged 5HT1BR immobilised on Ni2+-coated 96-well plate; GFP-mini-G protein 0 to 5 μM, 90 min on ice; specific binding = minus the GFP-mini-Gs condition; apparent KD, one-site fit.

Experiment [2] deals with C-terminally truncated human A2AR (residues 1-317, N154A, C-terminal His10) (human) (UniProt P29274). Briefly: fluorescent saturation binding assay (FSBA); DDM-solubilised His-tagged β1AR or A2AR immobilised on Ni2+-coated 96-well plate; GFP-mini-Gs 0 to 2.8 μM, 90 min on ice; specific binding = agonist minus inverse agonist condition; apparent KD, one-site fit.
Sequence of C-terminally truncated human A2AR (residues 1-317, N154A, C-terminal His10) (human) (P29274 1-317 N154A): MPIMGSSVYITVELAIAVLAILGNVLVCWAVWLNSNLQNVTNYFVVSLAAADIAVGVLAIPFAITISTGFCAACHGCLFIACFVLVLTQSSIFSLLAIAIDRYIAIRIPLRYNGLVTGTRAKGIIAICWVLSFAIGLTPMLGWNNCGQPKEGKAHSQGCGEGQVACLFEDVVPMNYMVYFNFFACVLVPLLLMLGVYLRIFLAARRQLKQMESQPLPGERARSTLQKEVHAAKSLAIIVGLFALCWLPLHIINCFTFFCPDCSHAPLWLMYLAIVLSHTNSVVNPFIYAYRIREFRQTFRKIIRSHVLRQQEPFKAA

Sequence of wild-type human serotonin 5HT1B receptor (residues 34-390) with C-terminal His10 (human) (P28222 34-390): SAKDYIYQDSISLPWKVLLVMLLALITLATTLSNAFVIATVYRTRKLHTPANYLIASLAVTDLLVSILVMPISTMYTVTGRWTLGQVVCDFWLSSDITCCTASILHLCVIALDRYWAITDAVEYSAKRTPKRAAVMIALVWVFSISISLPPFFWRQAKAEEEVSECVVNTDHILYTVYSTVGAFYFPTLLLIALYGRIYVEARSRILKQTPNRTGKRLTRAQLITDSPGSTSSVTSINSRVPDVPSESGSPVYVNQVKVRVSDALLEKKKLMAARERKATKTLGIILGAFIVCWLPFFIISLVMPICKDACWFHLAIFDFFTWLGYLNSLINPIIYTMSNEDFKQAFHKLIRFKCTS

Regarding “GFP-mini-Gs/i1 (construct 43) (domain or fragment)”, in experiment [1], the Kd came out at 390 nM. As for GFP-mini-Gs (domain or fragment), in experiment [2], the Kd worked out at 430 nM. As for “GFP-mini-Go1 (construct 12) (domain or fragment)”, the Kd in experiment [1] amounted to 180 nM.
